Test results from paper PMC2768988.

What was measured:
[1] = biological target: Flrt1a ectodomain (zebrafish); experiment: SPR; BIAcore, kinetic analysis; same surfaces; three concentrations of Unc5b-Cd4d3+4-6His, flow 100 μl/min, 10 Hz, global fit of first-order decay and of an association model; HBS-EP, 28°C; purification of the Flrt baits not stated
[2] = biological target: Flrt1b ectodomain (zebrafish); experiment: as above
[3] = biological target: Flrt3 ectodomain (zebrafish); experiment: as above
[4] = biological target: Flrt1a ectodomain (zebrafish); experiment: SPR; BIAcore, equilibrium analysis; biotinylated Flrt-Cd4d3+4-bio baits (about 1000 RU) on a streptavidin-coated chip, Cd4d3+4-bio as reference; purified monomeric Unc5b-Cd4d3+4-6His injected; HBS-EP, 28°C; purification of the Flrt baits not stated
[5] = biological target: Flrt1b ectodomain (zebrafish); experiment: as above
[6] = biological target: Flrt3 ectodomain (zebrafish); experiment: as above

Unc5b-Cd4d3+4-6His (domain or fragment)
koff [1]: > 7 s⁻¹
kon [1]: > 100000 M⁻¹ s⁻¹
t1/2 [1]: < 0.1 s
koff [2]: 0.6 s⁻¹
kon [2]: > 100000 M⁻¹ s⁻¹
t1/2 [2]: 1.2 s
kon [3]: > 100000 M⁻¹ s⁻¹
Kd [4]: > 50 µM
Kd [5]: 4 µM
Kd [6]: 14 µM
